From publication PMC6962393, “Targeting the tumor vasculature with engineered cystine-knot miniproteins” (Nature Communications, 2020)

Key:
Assay in all cases: ELISA
ELISA = substrate: FN-B, recombinant human fibronectin extra domain B (EDB) as a single domain; settings: chain shown with the change; pre-coated human FN-B; detection with HRP-conjugated anti-S-tag antibody; parent: est. 100; read off a plot
[1] = biological target: FN-6789, human fibronectin type III domains 6–9 without EDB; settings: chain shown with the change, FN-6789 coated 1 µg/well, read off a plot
[2] = biological target: FN-67B89, human fibronectin EDB flanked by its surrounding type III domains; settings: chain shown with the change, FN-67B89 coated 1 µg/well, read off a plot
FN-67B89, human fibronectin EDB flanked by its surrounding type III domains, sequence (chain, as listed by the source): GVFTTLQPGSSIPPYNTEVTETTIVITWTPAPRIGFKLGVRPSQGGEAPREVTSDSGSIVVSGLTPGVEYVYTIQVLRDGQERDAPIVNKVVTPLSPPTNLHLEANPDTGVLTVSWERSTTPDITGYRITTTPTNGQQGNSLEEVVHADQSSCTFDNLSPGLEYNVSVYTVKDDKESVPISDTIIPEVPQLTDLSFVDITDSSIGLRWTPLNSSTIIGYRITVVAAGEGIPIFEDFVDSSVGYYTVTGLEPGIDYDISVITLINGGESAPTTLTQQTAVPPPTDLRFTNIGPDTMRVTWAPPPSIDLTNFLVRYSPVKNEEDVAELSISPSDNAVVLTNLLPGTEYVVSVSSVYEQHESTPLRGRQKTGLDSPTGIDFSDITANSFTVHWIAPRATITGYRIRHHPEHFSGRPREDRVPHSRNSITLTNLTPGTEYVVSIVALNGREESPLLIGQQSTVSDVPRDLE

FN-B, recombinant human fibronectin extra domain B (EDB) as a single domain, sequence (chain, as listed by the source): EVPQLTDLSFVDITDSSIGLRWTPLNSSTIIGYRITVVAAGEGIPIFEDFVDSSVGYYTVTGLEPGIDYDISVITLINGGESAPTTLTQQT
FN-6789, human fibronectin type III domains 6–9 without EDB, sequence (chain, as listed by the source): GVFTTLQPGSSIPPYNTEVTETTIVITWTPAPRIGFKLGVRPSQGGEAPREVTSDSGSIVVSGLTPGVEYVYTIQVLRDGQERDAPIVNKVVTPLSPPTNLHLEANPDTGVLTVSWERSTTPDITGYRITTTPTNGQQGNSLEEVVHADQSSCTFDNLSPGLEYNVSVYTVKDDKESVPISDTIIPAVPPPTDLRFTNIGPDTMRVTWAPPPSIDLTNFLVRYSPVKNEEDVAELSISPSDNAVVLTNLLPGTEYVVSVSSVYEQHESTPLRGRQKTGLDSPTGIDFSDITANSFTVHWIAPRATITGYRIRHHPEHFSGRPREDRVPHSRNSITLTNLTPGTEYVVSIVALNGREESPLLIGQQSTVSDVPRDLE

| percent of parent (ELISA) [%] | Binder | other results |
| --- | --- | --- |
| 130 | AMCTQRKNRIRLCRRDSDCTGACICRGNGYCG [Trx-MC-FN-010, Thioredoxin-A fusion of cystine-knot miniprotein MC-FN-010 P1A] | – |
| 320 | PMCTQRANRIRLCRRDSDCTGACICRGNGYCG [Trx-MC-FN-010, Thioredoxin-A fusion of cystine-knot miniprotein MC-FN-010 K7A] | response (Absorbance (450 nm)) ([1]; 25 nM Trx-miniprotein, parent: est. 0.30): 0.09; response (Absorbance (450 nm)) ([1]; 50 nM Trx-miniprotein, parent: est. 0.62): 0.13; response (Absorbance (450 nm)) ([2]; 1.56 nM Trx-miniprotein, parent: est. 0.70): 0.62; response (Absorbance (450 nm)) ([2]; 3.13 nM Trx-miniprotein, parent: est. 1.5): 1.1; response (Absorbance (450 nm)) ([2]; 6.25 nM Trx-miniprotein, parent: est. 2.2): 1.7; response (Absorbance (450 nm)) ([2]; 12.5 nM Trx-miniprotein, parent: est. 3.0): 2.4; response (Absorbance (450 nm)) ([2]; 25 nM Trx-miniprotein, parent: est. 3.4): 2.9; response (Absorbance (450 nm)) ([2]; 50 nM Trx-miniprotein, parent: est. 3.7): 3.1 |
| 61 | PMCTQRKNRIRLCRADSDCTGACICRGNGYCG [Trx-MC-FN-010, Thioredoxin-A fusion of cystine-knot miniprotein MC-FN-010 R15A] | – |
| 83 | PMCTQAKNRIRLCRRDSDCTGACICRGNGYCG [Trx-MC-FN-010, Thioredoxin-A fusion of cystine-knot miniprotein MC-FN-010 R6A] | – |
| 100 | PMCAQRKNRIRLCRRDSDCTGACICRGNGYCG [Trx-MC-FN-010, Thioredoxin-A fusion of cystine-knot miniprotein MC-FN-010 T4A] | – |

More lines, now with the values behind:

| Binder | percent of parent (ELISA) [%] | other results |
| --- | --- | --- |
| PMCTQRKNAIRLCRRDSDCTGACICRGNGYCG [Trx-MC-FN-010, Thioredoxin-A fusion of cystine-knot miniprotein MC-FN-010 R9A] | 5 | – |
| PMCTQRKARIRLCRRDSDCTGACICRGNGYCG [Trx-MC-FN-010, Thioredoxin-A fusion of cystine-knot miniprotein MC-FN-010 N8A] | 88 | – |
| PACTQRKNRIRLCRRDSDCTGACICRGNGYCG [Trx-MC-FN-010, Thioredoxin-A fusion of cystine-knot miniprotein MC-FN-010 M2A] | 100 | – |
| PMCTQRKNRIRLCARDSDCTGACICRGNGYCG [Trx-MC-FN-010, Thioredoxin-A fusion of cystine-knot miniprotein MC-FN-010 R14A] | 71 | – |
| PMCTARKNRIRLCRRDSDCTGACICRGNGYCG [Trx-MC-FN-010, Thioredoxin-A fusion of cystine-knot miniprotein MC-FN-010 Q5A] | 65 | – |
